The subject of the data set is pdt-tagged sfGFP.

The values that follow come from patent US20210163947.

As for mf-Lon, the “signal decay of pdt-tagged sfGFP (protein degradation) on mixing extracts” value was “Increasing the concentration of mf-Lon and supplying additional ATP (a co-substrate for the reaction) results in some signal decay”.
